Measured values from patent US7740850B2, “PDGFRβ-specific antibodies” (ImClone, LLC, priority 2007, dated 2010).

What was measured:
[1] = test system: blood vessels and pericytes in BxPC3 tumor xenografts; experiment: Immunohistochemistry of tumor sections (CD31 / α-SMA double staining); format: in vivo, mouse; conditions: BxPC3 tumors, Day 34 post treatment
Text: FIG. 5 represents results of immunohistochemical analysis of human xenografts after treatment with 1B3, DC101, or DC101 plus 1B3. On Day 34 (BxPC3 model, panel A to C) or 50 (NCI-H460 model, panel D to F) post treatment, six mice from each group were sacrificed and tumors were processed for IHC analysis. Tumors were sectioned and double staining for both blood vessels (anti-CD31) and pericyte/SMC coverage (α-SMA, panel B and E). Five digital immunofluorescence images of tumor periphery and tumor core from each section were acquired and quantified for total CD31^+ vessels (panel A and D), α-SMA^+ vessels (panel B and E), and the percentage of dual CD31^+/α-SMA^+ over total CD31^+ vessels (panel C and F). Two different quantitation methods were used to measure the degree of vascularity of individual tumor sections: vessel density (numbers of vessels/[…]) and percentage of vessel area (% vessel area over total tumor area). For statistic analysis, two-way ANOVA followed by Fisher's LSD method was used for multiple comparisons (Sigma Stat 3.1 Systat Software, Inc., Point Richmond, Calif.). *P<0.05 compared to the saline group. Open bars, tumor periphery; solid bars, tumor core. […]
Immunofluorescence images (at 200× magnification) were acquired using EZ-C1 2.20 software through a digital camera connected to a confocal microscope (Nikon Eclipse TE2000U). Computer assisted morphologic quantification was performed using Image Pro Plus software (MediaCybernatics, Silver Spring, Md.) and analyzed from each section.
Five digital images of tumor periphery and tumor core from each section were counted for total CD31^+ vessels, α-SMA^+ vessels, mature vessels (dual CD31^+ and α-SMA^+), and the percentage of dual CD31^+/α-SMA^+ vessels over total CD31^+ vessels. Two different quantitation methods were used to measure the degree of vascularity of individual tumor sections: vessel density (numbers of vessels/[…]) and percentage of vessel area (% vessel area over total tumor area). Computer assisted morphologic quantification was performed using Image Pro Plus software. […]

[2] = test system: Caki-1 kidney carcinoma xenograft; experiment: Subcutaneous tumor xenograft model; format: in vivo, mouse
Method: Six xenograft models, SK-OV-3, OV-CAR-8, BxPC-3, OV-CAR-5, Caki-1 and NCI-H460 (A to F, respectively) were used to examine the effects of 1B3 on xenograft tumors in athymic nude mice. Mice with established tumors (˜250-300 mm^3) were randomly grouped and treated with 1B3, normal human IgG, or saline by intraperitoneal injection twice weekly (except for BxPC-3 model where the mice were treated three times a week) at the dose indicated. Tumor volumes were measured twice a week and are presented as mean±SEM. *1 indicates the loss of one mouse due to severe illness. 1B3 binds to mouse, but not human, PDGFRβ. Accordingly, the observed responses to treatment result from inhibition of stimulation of host cells.
Antitumor activity of anti-mPDGFRβ antibody in tumor xenograft models. Six human xenograft tumor models, including three ovarian carcinoma (SK-OV-3, OV-CAR-5 and OV-CAR-8), one pancreatic carcinoma (BxPC3), one lung carcinoma (NCI-H460), and one kidney carcinoma (Caki-1), were used to assess the antitumor activity of 1B3 in vivo. […] Tumor sizes and mouse body weight were measured twice a week. Tumor volume was calculated using the formula: π/6×(length×width^2), where length=longest diameter and width=diameter perpendicular to length. The ratio of average tumor volume in the treatment group versus that in the control group (T/C %) was calculated. […]

[3] = test system: 4β1α; experiment: Epitope mapping, PDGFRβ/α chimera; format: binding; conditions: ✓ / X, key not given
Method: 2C5 binds to domain 1 (D1) and domain 2 (D2) of PDGFRβ. Various chimeric constructs of PDGFRβ and PDGFRα were first made by domain swapping, starting from N-terminus to C-terminus with PDGFRβ domain(s) replacing PDGFRα domain(s). The PDGFRβ/α chimera were tested for the ability of 2C5 binding. Shorter versions of PDGFRβ, including D1D2, D2D3 and D1D2D3, were then made to confirm the 2C5 binding domains on PDGFRβ.

Molecule | CD31^+ vessel density ([1]; 40 mg/kg three times a week) | α-SMA^+ vessel density / α-SMA staining ([1]; 40 mg/kg three times a week) | percentage of CD31/α-SMA double positive (mature) vessels over total CD31^+ vessels ([1]; versus saline) | antitumor activity ([2]; Caki-1, 40 mg/kg three times per week or 60 mg/kg twice weekly) | Tumor Volume T/C % ([2]; Caki-1 xenograft, monotherapy) [%] | binding to 4β1α [3]
1B3: human anti-mouse PDGFRβ antibody from Fab phage display library, human κ/γ1 constant regions; SEQ ID NOS in Table 1 (antibody, listed as Homo sapiens, V domains shown, human kappa/gamma1 constant regions) VH: QVQLQESGGGLVKPGGSLRLSCAASGFTFSSYSMNWVRQAPGKGLEWVSSISSSSSYIYYADSVKGRFTISRDNSKNTLYLQMNSLRAEDTAVYYCAKGGRPLLVFDFWGQGTLVTVS VL: EIVMTQSPGTLSLSPGERATLSCRASQSVSSSYLAWYQQKPGQAPRLLIYDASKRATGIPARFSGSGSGTDFTLTISTLESEDSAVYYCQQRGYWPPITFGQGTRLEIKR | no significant effect on overall tumor vessel density | reduced the α-SMA staining in tumor periphery | reduced percentage | failed to show any antitumor activity | 65 | 
2C5: PDGFRβ-specific human antibody binding both human and murine PDGFRβ; SEQ ID NOS in Table 1 (antibody, listed as Homo sapiens, V domains shown) VH: QVQLVQSGAEVKKPGSSVKVSCKASGGTFSSYAISWVRQAPGQGLEWMGRIIPILGIANYAQKFQGRVTITADKSTSTAYMELSSLRSEDTAVYYCARDMGSRNYYYFYWGQGTLVTVSS VL: EIVLTQSPATLSLSPGERATLSCRASQSVGRYLAWYQQKPGQAPRLLIYGASNRATGIPARFSGSGSGTDFTLTISSLEPEDFAVYYCQQRSNWPLTFGGGTKVEIK |  |  |  |  |  | ✓
